# Data taken from US20240058275A1, “NANO-SILICA - IN YEAST PARTICLE (YP) DRUG ENCAPSULATION APPROACH FOR IMPROVED THERMAL AND HYDROLASE STABILITY OF YP DRUG DELIVERY FORMULATIONS” (UNIVERSITY OF MASSACHUSETTS, priority 2022, published 2024).
# What was measured:
# [1] = Encapsulation efficiency of proteins ensilicated in GPs with 100% TEOS; assay type: physicochemical; details: 100% TEOS prepolymerized at pH 2, SDS-PAGE
# Method: Dry GPs were mixed with a solution of 25 mg/mL protein in water (4 μL protein solution per mg GP, 100 μg protein per mg GP), incubated to allow for complete absorption of protein solution inside the hollow cavity of GPs, and then the samples were frozen and lyophilized. To maximize protein incorporation into GPs, the dry GP-OVA samples were hydrated with 2 μL water per mg GP, mixed, frozen, and lyophilized. TEOS (Millipore Sigma, Burlington, MA, USA; #86578, ≥99% purity, density 0.933 g/mL) was mixed with a 0.01 M HCl (pH 2) solution at a volume ratio of 2:1 (v/v) aqueous HCl:TEOS and the sample was incubated at 20° C. with constant mixing for one hour to allow for partial polymerization of TEOS. Then, the partially polymerized single phase TEOS solution was added to dry GP-protein (4 μL per mg GP) and the sample was incubated for one hour. GP ensilicated protein samples were suspended in 0.9% sterile saline (5 mg GP/mL), centrifuged and the supernatants were collected to quantify unencapsulated protein. The samples were then washed three more times in 0.9% sterile saline, suspended in 0.9% saline at 5 mg GP/mL and stored at 20° C.
# GP ensilicated protein was extracted and quantified by following the procedure described above for BSA. Proteins in the GP supernatants and pellets were quantified by SDS-PAGE.
# [2] = Ensilication (trapping) efficiency of BSA within GPs, quantified by SDS-PAGE; assay type: physicochemical; details: TEOS pre-polymerized at pH 2, TEOS:rBSA ratios of 1.3 to 24.9
# Method: The efficiency of ensilication of BSA within GPs was tested. […] The samples were mixed, incubated at room temperature for 30 minutes, frozen and lyophilized to remove solvent. The loading cycle was repeated by adding 10 μL of water to the dry fGP rBSA sample to draw payload within the matrix of the GP shell into the hollow GP cavity, the sample was mixed and lyophilized to remove solvent.
# TEOS was mixed with 0.01 M HCl solution (pH 2). The mixture was mixed for 1 hour to achieve TEOS prepolymerization and formation of a single aqueous phase in which the TEOS was close to its gel point. Solutions with different ratios of TEOS and 0.01 M HCl were prepared to target TEOS:rBSA weight ratios from 0 to 24.9. […]
# The ensilicated fGP-rBSA samples were washed three times with 0.9% saline. The ensilicated fGP rBSA pellets were evaluated by microscopy to assess efficient trapping of rBSA within the cavity of fGPs, and percent protein encapsulation was quantified by SDS-PAGE. […]
# Acid catalyzed TEOS forms long, linear polymers that easily entangle and gel. […] The percent of BSA trapped in GPs was measured as described above.
# GPs containing ensilicated fBSA were also prepared as described before at the optimal TEOS polymerization conditions with 0.01 M HCl (pH 2) for use as control. Percent of BSA trapped in GPs was measured as described above.
Molecule,% encapsulation efficiency in GPs [1],percent of rBSA trapped in fGPs [2]
Transferrin: transferrin protein payload,92 ± 8%,
rBSA: rhodamine labeled BSA payload,,> 80%
"Ovalbumin: ovalbumin protein payload (protein, UniProt P01012 2-386, looked up) Ovalbumin: GSIGAASMEFCFDVFKELKVHHANENIFYCPIAIMSALAMVYLGAKDSTRTQINKVVRFDKLPGFGDSIEAQCGTSVNVHSSLRDILNQITKPNDVYSFSLASRLYAEERYPILPEYLQCVKELYRGGLEPINFQTAADQARELINSWVESQTNGIIRNVLQPSSVDSQTAMVLVNAIVFKGLWEKAFKDEDTQAMPFRVTEQESKPVQMMYQIGLFRVASMASEKMKILELPFASGTMSMLVLLPDEVSGLEQLESIINFEKLTEWTSSNVMEERKIKVYLPRMKMEEKYNLTSVLMAMGITDVFSSSANLSGISSAESLKISQAVHAAHAEINEAGREVVGSAEAGVDAASVSEEFRADHPFLFCIKHIATNAVLFFGRCVSP",97 ± 3%,
